Measurements taken from FireProtDB (doi:10.1016/0022-2836(92)90387-y).

B1: Ribonuclease, P00648 (parent)
chain: MMKMEGIALKKRLSWISVCLLVLVSAAGMLFSTAAKTETSSHKAHTEAQVINTFDGVADYLQTYHKLPDNYITKSEAQALGWVASKGNLADVAPGKSIGGDIFSNREGKLPGKSGRTWREADINYTSGFRNSDRILYSSDWLIYKTTDHYQTFTKIR

Variants of: B1
Details: Bacillus amyloliquefaciens; pH 6.3; 25 °C; Urea; Fluorescence; MES 50 mM; reversible: yes; structure 1BNI; whole UniProt chain shown

Variant	ddG of mutation (higher = less stable) [kcal/mol]	unfolding free energy [kcal/mol]
S104A	-0.15	8.98
D101N	2.67	8.16
Q151A	0.16	8.67
H149A	0.24	8.59
N105D	-0.4	9.23
E120A	2.3	6.53
Y150F	0	8.83
R106A	-0.64	9.47
K74A	-0.36	9.19
